IntAct's records for PubMed 34597683

B1: Prickle-like protein 1 (Mus musculus), Q3U5C7 (parent)
chain: MPLEMEPKMSKLVFGCQRSSTSDDDSGCALEEYAWVPPGLRPEQIQLYFACLPEEKVPYVNSPGEKHRIKQLLYQLPPHDNEVRYCQSLSEEEKKELQVFSAQRKKEALGRGTIKLLSRAVMHAVCEQCGLQMNGGEVAVFASRAGPGVCWHPSCFVCFTCNELLVDLIYFYQDGKIHCGRHHAELLKPRCSACDEIIFADECTEAEGRHWHMKHFCCLECETVLGGQRYIMKDGRPFCCGCFESLYAEYCETCGEHIGVDHAQMTYDGQHWHATEACFSCAQCKASLLGCPFLPKQGQIYCSKTCSLGEDIHASDSSDSAFQSARSRDSRRSVRMGRSSRSADQCRQSLLLSPALNYKFPGLSGNADDTLSRKLDDVSLASRQGAGFANEEFWKARVEQEASEDPEEWAEHEDYMTQLLLKFGDKNLFQQQSSEVDPRASEHWIPDNMVTNKPEVKPNHQGLASKKYQSDMYWAQSQDGLGDSAYGSHPGPASSRRLQELDLDHGAAGYTHDQSQWYEDSLECLSDLKPEQSIRDSMDSLALSNITGASVDGESKPRPSLYSLQNFEEIEAEDCEKMSNMGTLNSSMLHRSAESLQSLNSGLCPEKILPEEKPAHLPVLRRSKSQSRPQQVKFSDDVIDNGSYDIEIRQPPMSERTRRRAYHFEERGSRPHHHRHRRSRKSRSDNALNLVTERKYSAKDRLRLYTPDNYEKFIQNKSARELQAYMQNANLYSQYAHATSDYALQNPGMNRFLGLCGEDDDSWCSSSTSSSDSEEEGYFLGQPIPQPRPQRFTYYTDDLSSPASALPTPQFTQRTTKSKKKKGHKGKNCIIS
partner: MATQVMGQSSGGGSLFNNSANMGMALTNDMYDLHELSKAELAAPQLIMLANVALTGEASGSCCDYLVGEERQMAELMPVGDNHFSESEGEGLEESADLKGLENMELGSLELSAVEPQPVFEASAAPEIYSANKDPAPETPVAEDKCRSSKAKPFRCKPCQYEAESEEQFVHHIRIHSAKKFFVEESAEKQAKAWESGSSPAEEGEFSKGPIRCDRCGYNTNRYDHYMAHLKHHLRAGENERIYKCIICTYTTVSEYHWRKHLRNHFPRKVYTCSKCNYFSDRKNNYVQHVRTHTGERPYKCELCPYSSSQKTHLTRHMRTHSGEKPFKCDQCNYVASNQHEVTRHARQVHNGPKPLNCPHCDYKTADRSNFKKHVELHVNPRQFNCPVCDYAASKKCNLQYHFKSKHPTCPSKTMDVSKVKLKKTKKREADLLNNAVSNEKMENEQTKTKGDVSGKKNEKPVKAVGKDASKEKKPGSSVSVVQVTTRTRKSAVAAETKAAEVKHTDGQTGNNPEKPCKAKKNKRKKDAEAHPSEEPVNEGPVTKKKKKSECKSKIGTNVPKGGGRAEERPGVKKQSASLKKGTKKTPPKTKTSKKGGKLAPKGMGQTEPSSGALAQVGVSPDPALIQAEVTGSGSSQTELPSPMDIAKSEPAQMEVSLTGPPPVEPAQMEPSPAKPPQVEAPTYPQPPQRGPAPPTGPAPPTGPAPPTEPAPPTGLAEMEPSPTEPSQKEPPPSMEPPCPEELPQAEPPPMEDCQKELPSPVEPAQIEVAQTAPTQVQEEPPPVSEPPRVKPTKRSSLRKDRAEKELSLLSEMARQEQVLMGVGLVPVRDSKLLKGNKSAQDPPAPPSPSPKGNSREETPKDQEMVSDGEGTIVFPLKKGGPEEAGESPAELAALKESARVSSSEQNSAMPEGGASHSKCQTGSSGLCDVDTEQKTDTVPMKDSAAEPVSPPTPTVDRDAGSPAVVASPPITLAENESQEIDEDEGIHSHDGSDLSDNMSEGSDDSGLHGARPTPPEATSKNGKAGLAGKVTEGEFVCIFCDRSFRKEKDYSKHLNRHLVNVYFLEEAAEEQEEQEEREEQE

Variants of: B1
Settings: with rest_mouse Rest

effect of a mutation on the interaction	Variant
decreasing interaction	R104Q
